Publication PMC3700227

Biological target: Cladosporium fulvum LysM effector Ecp6 (extracellular protein 6), produced in Pichia pastoris (Cladosporium fulvum) (UniProt B3VBK9)
Assay: SEC

Cladosporium fulvum LysM effector Ecp6 (extracellular protein 6), produced in Pichia pastoris (from UniProt B3VBK9) (natural protein)
stoichiometry N: 2
